# Assay: soluble on expression in E. coli; label from the status in PepcDB or PDB records
row,Sequence,soluble on expression in E. coli
1,MAHHHHHHMERRSEWVASLRSTLPQFSKRSAAPLERGNAAAILGPAPRRTLDKALSSHNTTSSLLLPSEWCEQATQRLITTLHGIVPPLQVQQTDYFLCSLIHPSYVQASTMRCESEALRRRVQQELRRTVCMPLELTMTGSKSLRLLRELTHYVEQGAAAAATSARARATLPAAPVAGRSEARDPSYGPSSWSSYPLDASWPELHSADSTAFVQAFQRAGLDSLVLYDKSFFAASSTLTDNISGAGSAEVSLAAFTALCGSIELVSGWCSLLQFVDRVASEQRGLERNTDGHE,not soluble
2,MNTGEMKINWVSRYMPLLNKIAEEYSREKPLSGFTVGMSIHLEAKTAYLAITLSKLGAKVVITGSNPLSTQDDVAEALRSKGITVYARRTHDESIYRENLMKVLDERPDFIIDDGGDLTVISHTEREEVLENLKGVSEETTTGVRRLKALEETGKLRVPVIAVNDSKMKYLFDNRYGTGQSTWDAIMRNTNLLVAGKNVVVAGYGWCGRGIALRAAGLGARVIVTEVDPVKAVEAIMDGFTVMPMKEAVKIADFVITASGNTDVLSKEDILSLKDGAVLANAGHFNVEIPVRVLEEIAVEKFEARPNVTGYTLENGKTVFLLAEGRLVNLAAGDGHPVEIMDLSFALQIFAVLYLLENHRKMSPKVYMLPDEIDERVARMKLDSLGVKIDELTEKQRRYLRSWQ,soluble
3,MQPTETSQPAPSDQGRRLKDQLSESMSFSSQMKKEDDELSMKALSAFKAKEEEIEKKKMEIRERVQAQLGRVEDESKRLAMIREELEGFADPMRKEVTMVRKKIDSLDKELKPLGNTVQKKETEYKDALEAFNEKNKEKVELITKLQEGESEKFRFKKLEELSKNIDLTKP,not soluble
4,MGSDKIHHHHHHMPYPKKVTIKEVGPRDGLQNEPVWIATEDKITWINQLSRTGLSYIEITSFVHPKWIPALRDAIDVAKGIDREKGVTYAALVPNQRGLENALEGGINEACVFMSASETHNRKNINKSTSESLHILKQVNNDAQKANLTTRAYLSTVFGCPYEKDVPIEQVIRLSEALFEFGISELSLGDTIGAANPAQVETVLEALLARFPANQIALHFHDTRGTALANMVTALQMGITVFDGSAGGLGGCPYAPGSSGNAATEDIVYMLEQMDIKTNVKLEKLLSAAKWIEEKMGKPLPSRNLQVFKSS,not soluble
5,RQVQKELGDVLVRLHNPVVLTPTTVQVTWTVDRQPQFIQGYRVMYRQTSGLQATSSWQNLDAKVPTERSAVLVNLKKGVTYEIKVRPYFNEFQGMDSESKTVRTTEE,soluble
6,MSLQVLDRVELYLVKTPLPAPHAPSWIPGTIRTHVSMCIVRFITDDGVEGWSGFPAAGRERAGLGDLLAGLFLGQEAGDIDKLSERIQIMAAGGNFNWWLEPAFWDIKAKSAGLPLYKLLGGTDDRIRLYASSGELRDPGARREEAEARLAEGFDTMKIRVHDFDEAVDIDHISDIARHMQGRMRISVDCNQAFRLTQNGDAPLWSLDRAKRFVDAAADVGLAWVEEPLFGEWHEEIARLTTYSRVPVAGGELHVMGYRELARMMKMGCYNIFQPDAMWAGGITQCLKVAALCWQEGIRFTPHCWSNGFGFIANAHVFAASGFAGEELFEYPLSPPGWTPEGRDQIFSEPFLHENGWFAMPQTPGLGFEINQETLEKHGQCFFRASRNSTHWMPEALPAEGHHHHHH,soluble
7,MSLIDLKPKVERVDAIQSFVSQETPIVTIHDSDGASGTGYSYTIGTGGPSVMALLEQTLVPALIGKDADRIDGIWRDLLFLTHATAVGPITSLALAAIDIALWDLRCKKMGLPLWKAAGGSRDRIPLYSTEGGWLHLETAALVEDALAMKEQGFRGSKIKIGRAHLSEDRARLGAIRAAVGDSYEIMTDANQGFTLSEAIRRAKVLEEFGIGWFEEPLPADDVLSHQELSRRTHVPIAVGESMYSLSQFKDYLQVGAAQIVQVDVARIGGITPWLKVAHLAEAHSVMVCPHFLMELHLPLVCAVPNAKWLEYIPQLDGVTRQNMQISNGDAVPSDEPGLGIDWDWDAITAQEIGARSIGGAEGHHHHHH,not soluble
8,MSKSQYKMSKITYASGKMRPPSLIQKLNVYKPFLLIVDINSTNFALVGNGEILGHLFYRQNSPSYTQIKSRLVIYPKCCKLYSEDIAIPLHDWKIENLGAIKLLTKHNSLKTGTLHQIDKTMMLVYMAAFGEDSGVRSKISKPHGKTATWRNQHDLFMQ,not soluble
9,MPKRNDIKTILVIGSGPIIIGQAAEFDYAGTQACLALKEEGYRVILVNSNPATIMTDKEIADKVYIEPLTHDFIARIIRKEQPDALLPTLGGQTGLNMAIQLHESGVLQDNNVQLLGTELTSIQQAEDREMFRTLMNDLNVPVPESDIVNTVEQAFKFKEQVGYPLIVRPAFTMGGTGGGICHNDEELHEIVSNGLHYSPATQCLLEKSIAGFKEIEYEVMRDKNDNAIVVCNMENIDPVGIHTGDSIVVAPSQTLSDVEYQMLRDVSLKVIRALGIEGGCNVQLALDPHSFDYYIIEVNPRVSRSSALASKATGYPIAKLAAKIAVGLTLDEMLNPITGTSYAAFEPTLDYVISKIPRFPFDKFEKGERELGTQMKATGEVMAIGRTYEESLLKAIRSLEYGVHHLGLPNGESFDLDYIKERISHQDDERLFFIGEAIRRGTTLEEIHNMTQIDYFFLHKFQNIIDIEHQLKEHQGDLEYLKYAKDYGFSDKTIAHRFNMTEEEVYQLRMENDIKPVYKMVDTCAAEFESSTPYYYGTYETENESIVTDKEKILVLGSGPIRIGQGVEFDYATVHAVWAIQKAGYEAIIVNNNPETVSTDFSISDKLYFEPLTEEDVMNIINLEKPKGVVVQFGGQTAINLADKLAKHGVKILGTSLENLNRAEDRKEFEALLRKINVPQPQGKTATSPEEALANAAEIGYPVVVRPSYVLGGRAMEIVDNDKELENYMTQAVKASPEHPVLVDRYLTGKEIEVDAICDGETVIIPGIMEHIERAGVHSGDSIAVYPPQTLTEDELATLEDYTIKLAKGLNIIGLINIQFVIAHDGVYVLEVNPRSSRTVPFLSKITDIPMAQLAMRAIIGEKLTDMGYQEGVQPYAEGVFVKAPVFSFNKLKNVDITLGPEMKSTGEVMGKDTTLEKALFKGLTGSGVEVKDHGTVLMTVSDKDKEEVVKLAQRLNEVGYKILATSGTANKLAEYDIPAEVVGKIGGENDLLTRIQNGDVQIVINTMTKGKEVERDGFQIRRTTVENGIPCLTSLDTANALTNVIESMTFTMRQM,not soluble
10,ANSMLKGKVALVTGASRGIGRAIAKRLANDGALVAIHYGNRKEEAEETVYEIQSNGGSAFSIGANLESLHGVEALYSSLDNELQNRTGSTKFDILINNAGIGPGAFIEETTEQFFDRMVSVNAKAPFFIIQQALSRLRDNSRIINISSAATRISLPDFIAYSMTKGAINTMTFTLAKQLGARGITVNAILPGFVKTDMNAELLSDPMMKQYATTISAFNRLGEVEDIADTAAFLASPDSRWVTGQLIDVSGGSCL,soluble
11,MGSDKIHHHHHHMTDLGLYRHLDQMAPWNDRLQVLEVIGVSDEAPDVKTFTFRSDNQTWFRYKPGQFVTLELPTPDGPLMRTYTLSSSPSRPFSIAVTVKAQAGSIGTRWMFDHLVPGSHVKAYGPSGDFSLHSHPAAKYLFISAGSGVTPMMSMLRWLNDCAPWTDVGFVNCARRPEEIIFRKELELLGGHMPGLSLGFMIEERSSREGWYGHMGRIDAIRLPLLAPDFREREIFCCGPDPFMRAVRGMLEAAGFDMTKYHQESFAAPAVEEVPAPFVSPGEDGVTVPVEATPIRFALSVVDAECVAGQTVLQTARASGVRIPAACEFGLCGTCKVKKVSGAVEMSHNGGILDHEIDDGFILACCSKPLSALEIEA,not soluble
12,MGSDKIHHHHHHMTNIILICVDQMRADTIRILGNPSIITPNLDALSLNSVVFSNHFSAGSPCSPARTSLLTGQYPATHGSITKNHRLKSTTNLALEIKKIGLSSTLFGFTDTVIPPYIQEKEGIMPGFDVQCYMNLHNIGLSGWAKELQKKGYHVLPNIMDIYRAEKAPYNYHDSDTAFLTDQVINYVASQGQEFGFIHLSYFRPHPPFIAPAPYSEYYPEVNCQKPEVDLETFLSMHPFHECLFHQLYKNTFNNLSYKQIESILTERFSRDKRAYYGLITELDYHLGRLITFLKDKGVYDETLLIFTSDHGELLGDKWLYEKGGYFDQSFHVPLLIKPPKALRSKQEGKIVDSFTSSIDLMPTILDIINAPIPESVEGLSLAELLSDGKNDSTRKDIIYEHYTTLPTKQLNRTLTIKDESFKYVYCSQFEHLLFDLKSDPDELKNLATESKHLNTVAYYQDRLRAEKLL,not soluble

# — the DeepSol protein solubility set
